Assay results as given in article PMC4907068, “Phosphatase ABI1 and okadaic acid-sensitive phosphoprotein phosphatases inhibit salt stress-activated SnRK2.4 kinase” (BMC Plant Biology, 2016).

Molecular target: T1, GST-fused ABI1 (Arabidopsis thaliana, UniProt P49597 1-434)
T1 construct: ABI1, PP2C clade A phosphatase, Arabidopsis thaliana, TAIR At4g26080; also called GST-ABI1; recombinant ABI1; not shown: GST, N-terminal, kept
T1 sequence (looked up): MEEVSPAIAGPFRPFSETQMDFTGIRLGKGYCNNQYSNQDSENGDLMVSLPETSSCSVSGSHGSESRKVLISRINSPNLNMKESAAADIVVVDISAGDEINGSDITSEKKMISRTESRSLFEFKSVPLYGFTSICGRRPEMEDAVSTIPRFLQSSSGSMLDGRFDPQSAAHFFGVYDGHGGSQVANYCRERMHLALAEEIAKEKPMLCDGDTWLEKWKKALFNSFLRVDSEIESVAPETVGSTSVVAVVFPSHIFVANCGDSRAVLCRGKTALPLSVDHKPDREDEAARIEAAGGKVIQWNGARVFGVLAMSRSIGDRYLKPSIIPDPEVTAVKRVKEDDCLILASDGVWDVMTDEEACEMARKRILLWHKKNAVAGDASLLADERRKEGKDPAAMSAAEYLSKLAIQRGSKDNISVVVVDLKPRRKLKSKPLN
Assay: pull-down; GST-ABI1 or GST bound to Glutathione-Sepharose 4B beads, incubated with 10 ug recombinant SnRK2.4; 50 mM Tris-HCl pH 8.0, 50 mM NaCl, 0.01 % Triton X-100, 40 mM DTT; 45 min at RT, 5 washes; immunoblot with anti-SnRK2.4/SnRK2.10
Details: both partners purified

B1: recombinant SnRK2.4 (enzyme, Arabidopsis thaliana, UniProt P43291 1-363, looked up)
chain: MDKYELVKDIGAGNFGVARLMKVKNSKELVAMKYIERGPKIDENVAREIINHRSLRHPNIIRFKEVVLTPTHLAIAMEYAAGGELFERICSAGRFSEDEARYFFQQLISGVSYCHAMQICHRDLKLENTLLDGSPAPRLKICDFGYSKSSLLHSRPKSTVGTPAYIAPEVLSRREYDGKMADVWSCGVTLYVMLVGAYPFEDQEDPKNFRKTIQKIMAVQYKIPDYVHISQDCKNLLSRIFVANSLKRITIAEIKKHSWFLKNLPRELTETAQAAYFKKENPTFSLQTVEEIMKIVADAKTPPPVSRSIGGFGWGGNGDADGKEEDAEDVEEEEEEVEEEEDDEDEYDKTVKEVHASGEVRIS
notes: SnRK2.4, SNF1-related protein kinase 2 of group 1, Arabidopsis thaliana, TAIR At1g10940
**Q.** Does B1 bind?
**A.** binds
